We go through one molecule from patent US7183065.

Test [1] has as its target histone H1 peptide SEQ ID NO: 17 (human). Nature of the test: ELISA on coated peptide; rFab at 1.0, 3.0 and 10.0 µg/ml. (An ELISA detects its analyte on a solid surface through an enzyme-linked reagent.)
In test [2] the target is histone H1 peptide SEQ ID NO: 20 (human). The description is as above.

B1: NANUC-2 (Fab)
chain 1: VKLLEQSGGGVVQPGKSLRLSCAASGFTFRNYGMHWVRQAPGKGLEWVAGISSDGRKKKYVDSVKGRFTISRDKSKNTLYLQMNSLRAEDTAVYYCAKLSRAGGFDIWGQGTMVTVSS
chain 2: AELTQSPGTLSLFPGERATLSCRASQRISTSFLAWYQQKPGQSPRLLIFDASTRAPGIPDRFSASWSGTDFTLTISRLEPEDFAVYYCQHYGGSPWTFGQGTKVEIK
Regarding B1, the results for the OD405 in test [1] and in test [2] were 0.25 OD405 and 0.5 OD405, respectively.
